In patent US20140087995A1 (published 2014):
Numbered stars: 1 amine (or outer) side, 2 acyl side, 3 side chain; on linkers, the order of the positions; unused ones are H or OH. Bridge positions count the residues as written; N and C are the ends. Side chains are listed from the residue outwards. Ends that are not written are not given here. * marks the point of attachment. C20 diacid = O=C(O)CCCCCCCCCCCCCCCCCCC(=O)*; γGlu = O=C(O)[C@H](CCC(=O)[*:2])N[*:1]

T1: human calcitonin receptor (human, UniProt P30988 25-474)
T1 sequence (looked up): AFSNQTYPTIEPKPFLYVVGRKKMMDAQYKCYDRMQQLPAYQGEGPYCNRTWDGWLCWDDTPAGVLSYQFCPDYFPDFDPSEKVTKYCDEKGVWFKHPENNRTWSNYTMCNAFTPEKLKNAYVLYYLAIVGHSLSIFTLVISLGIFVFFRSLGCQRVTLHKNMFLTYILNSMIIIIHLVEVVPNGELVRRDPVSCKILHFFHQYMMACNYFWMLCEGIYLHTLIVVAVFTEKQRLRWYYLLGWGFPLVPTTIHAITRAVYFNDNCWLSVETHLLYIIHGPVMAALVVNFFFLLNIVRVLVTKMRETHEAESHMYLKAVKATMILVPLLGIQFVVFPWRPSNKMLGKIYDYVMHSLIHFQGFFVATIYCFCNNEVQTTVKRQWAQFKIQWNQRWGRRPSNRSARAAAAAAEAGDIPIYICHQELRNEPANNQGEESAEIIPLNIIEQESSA


Target: T1, human calcitonin receptor
Assay: cell-based or functional assay

Row | Binder | hCTR funct. EC50 [pM]
1 | K([γGlu-C20 diacid])CNTATCATQRLANFLRHSSPNFGAIPSSTNVGSHTY-NH2 (disulfide 2-7; N-terminus assumed; SMILES CC[C@H](C)[C@H](NC(=O)[C@H](C)NC(=O)CNC(=O)[C@H](Cc1ccccc1)NC(=O)[C@H](CC(N)=O)NC(=O)[C@@H]1CCCN1C(=O)[C@H](CO)NC(=O)[C@H](CO)NC(=O)[C@H](Cc1c[nH]cn1)NC(=O)[C@H](CCCNC(=N)N)NC(=O)[C@H](CC(C)C)NC(=O)[C@H](Cc1ccccc1)NC(=O)[C@H](CC(N)=O)NC(=O)[C@H](C)NC(=O)[C@H](CC(C)C)NC(=O)[C@H](CCCNC(=N)N)NC(=O)[C@H](CCC(N)=O)NC(=O)[C@@H](NC(=O)[C@H](C)NC(=O)[C@@H]1CSSC[C@H](NC(=O)[C@@H](N)CCCCNC(=O)CC[C@H](NC(=O)CCCCCCCCCCCCCCCCCCC(=O)O)C(=O)O)C(=O)N[C@@H](CC(N)=O)C(=O)N[C@@H]([C@@H](C)O)C(=O)N[C@@H](C)C(=O)N[C@@H]([C@@H](C)O)C(=O)N1)[C@@H](C)O)C(=O)N1CCC[C@H]1C(=O)N[C@@H](CO)C(=O)N[C@@H](CO)C(=O)N[C@H](C(=O)N[C@@H](CC(N)=O)C(=O)N[C@H](C(=O)NCC(=O)N[C@@H](CO)C(=O)N[C@@H](Cc1c[nH]cn1)C(=O)N[C@H](C(=O)N[C@@H](Cc1ccc(O)cc1)C(N)=O)[C@@H](C)O)C(C)C)[C@@H](C)O, analogue of human amylin; also called compound 60) [N^ε1-[(4S)-4-carboxy-4-(19-carboxynonadecanoylamino)butanoyl]-[Arg17,Pro21,Pro27,His35]-h-amylin] | 5360
2 | K([γGlu-C20 diacid])CNTATCATQRLAEFLRHSSPNFGAIPSSTNVGSRTY-NH2 (disulfide 2-7; N-terminus assumed; SMILES CC[C@H](C)[C@H](NC(=O)[C@H](C)NC(=O)CNC(=O)[C@H](Cc1ccccc1)NC(=O)[C@H](CC(N)=O)NC(=O)[C@@H]1CCCN1C(=O)[C@H](CO)NC(=O)[C@H](CO)NC(=O)[C@H](Cc1c[nH]cn1)NC(=O)[C@H](CCCNC(=N)N)NC(=O)[C@H](CC(C)C)NC(=O)[C@H](Cc1ccccc1)NC(=O)[C@H](CCC(=O)O)NC(=O)[C@H](C)NC(=O)[C@H](CC(C)C)NC(=O)[C@H](CCCNC(=N)N)NC(=O)[C@H](CCC(N)=O)NC(=O)[C@@H](NC(=O)[C@H](C)NC(=O)[C@@H]1CSSC[C@H](NC(=O)[C@@H](N)CCCCNC(=O)CC[C@H](NC(=O)CCCCCCCCCCCCCCCCCCC(=O)O)C(=O)O)C(=O)N[C@@H](CC(N)=O)C(=O)N[C@@H]([C@@H](C)O)C(=O)N[C@@H](C)C(=O)N[C@@H]([C@@H](C)O)C(=O)N1)[C@@H](C)O)C(=O)N1CCC[C@H]1C(=O)N[C@@H](CO)C(=O)N[C@@H](CO)C(=O)N[C@H](C(=O)N[C@@H](CC(N)=O)C(=O)N[C@H](C(=O)NCC(=O)N[C@@H](CO)C(=O)N[C@@H](CCCNC(=N)N)C(=O)N[C@H](C(=O)N[C@@H](Cc1ccc(O)cc1)C(N)=O)[C@@H](C)O)C(C)C)[C@@H](C)O, analogue of human amylin; also called compound 51) | 5220
3 | K([γGlu-C20 diacid])CNTATCATQRLAHFLRHSSPNFGAIPSSTPVGSNTY-NH2 (disulfide 2-7; N-terminus assumed; SMILES CC[C@H](C)[C@H](NC(=O)[C@H](C)NC(=O)CNC(=O)[C@H](Cc1ccccc1)NC(=O)[C@H](CC(N)=O)NC(=O)[C@@H]1CCCN1C(=O)[C@H](CO)NC(=O)[C@H](CO)NC(=O)[C@H](Cc1c[nH]cn1)NC(=O)[C@H](CCCNC(=N)N)NC(=O)[C@H](CC(C)C)NC(=O)[C@H](Cc1ccccc1)NC(=O)[C@H](Cc1c[nH]cn1)NC(=O)[C@H](C)NC(=O)[C@H](CC(C)C)NC(=O)[C@H](CCCNC(=N)N)NC(=O)[C@H](CCC(N)=O)NC(=O)[C@@H](NC(=O)[C@H](C)NC(=O)[C@@H]1CSSC[C@H](NC(=O)[C@@H](N)CCCCNC(=O)CC[C@H](NC(=O)CCCCCCCCCCCCCCCCCCC(=O)O)C(=O)O)C(=O)N[C@@H](CC(N)=O)C(=O)N[C@@H]([C@@H](C)O)C(=O)N[C@@H](C)C(=O)N[C@@H]([C@@H](C)O)C(=O)N1)[C@@H](C)O)C(=O)N1CCC[C@H]1C(=O)N[C@@H](CO)C(=O)N[C@@H](CO)C(=O)N[C@H](C(=O)N1CCC[C@H]1C(=O)N[C@H](C(=O)NCC(=O)N[C@@H](CO)C(=O)N[C@@H](CC(N)=O)C(=O)N[C@H](C(=O)N[C@@H](Cc1ccc(O)cc1)C(N)=O)[C@@H](C)O)C(C)C)[C@@H](C)O, analogue of human amylin; also called compound 62) | 539
4 | K([γGlu-C20 diacid])CNTATCATQRLANFLRHSSPNFGAIPSSTNVGSKTY-NH2 (disulfide 2-7; N-terminus assumed; SMILES CC[C@H](C)[C@H](NC(=O)[C@H](C)NC(=O)CNC(=O)[C@H](Cc1ccccc1)NC(=O)[C@H](CC(N)=O)NC(=O)[C@@H]1CCCN1C(=O)[C@H](CO)NC(=O)[C@H](CO)NC(=O)[C@H](Cc1c[nH]cn1)NC(=O)[C@H](CCCNC(=N)N)NC(=O)[C@H](CC(C)C)NC(=O)[C@H](Cc1ccccc1)NC(=O)[C@H](CC(N)=O)NC(=O)[C@H](C)NC(=O)[C@H](CC(C)C)NC(=O)[C@H](CCCNC(=N)N)NC(=O)[C@H](CCC(N)=O)NC(=O)[C@@H](NC(=O)[C@H](C)NC(=O)[C@@H]1CSSC[C@H](NC(=O)[C@@H](N)CCCCNC(=O)CC[C@H](NC(=O)CCCCCCCCCCCCCCCCCCC(=O)O)C(=O)O)C(=O)N[C@@H](CC(N)=O)C(=O)N[C@@H]([C@@H](C)O)C(=O)N[C@@H](C)C(=O)N[C@@H]([C@@H](C)O)C(=O)N1)[C@@H](C)O)C(=O)N1CCC[C@H]1C(=O)N[C@@H](CO)C(=O)N[C@@H](CO)C(=O)N[C@H](C(=O)N[C@@H](CC(N)=O)C(=O)N[C@H](C(=O)NCC(=O)N[C@@H](CO)C(=O)N[C@@H](CCCCN)C(=O)N[C@H](C(=O)N[C@@H](Cc1ccc(O)cc1)C(N)=O)[C@@H](C)O)C(C)C)[C@@H](C)O, analogue of human amylin; also called compound 35) [N^ε1-[(4S)-4-carboxy-4-(19-carboxynonadecanoylamino)butanoyl]-[Arg17,Pro21,Pro27,Lys35]-h-amylin] | 5460
5 | K([γGlu-C20 diacid])CNTATCATQRLAHFLRHSSPNFGAIPSSTNVGSNTY-NH2 (disulfide 2-7; N-terminus assumed; SMILES CC[C@H](C)[C@H](NC(=O)[C@H](C)NC(=O)CNC(=O)[C@H](Cc1ccccc1)NC(=O)[C@H](CC(N)=O)NC(=O)[C@@H]1CCCN1C(=O)[C@H](CO)NC(=O)[C@H](CO)NC(=O)[C@H](Cc1c[nH]cn1)NC(=O)[C@H](CCCNC(=N)N)NC(=O)[C@H](CC(C)C)NC(=O)[C@H](Cc1ccccc1)NC(=O)[C@H](Cc1c[nH]cn1)NC(=O)[C@H](C)NC(=O)[C@H](CC(C)C)NC(=O)[C@H](CCCNC(=N)N)NC(=O)[C@H](CCC(N)=O)NC(=O)[C@@H](NC(=O)[C@H](C)NC(=O)[C@@H]1CSSC[C@H](NC(=O)[C@@H](N)CCCCNC(=O)CC[C@H](NC(=O)CCCCCCCCCCCCCCCCCCC(=O)O)C(=O)O)C(=O)N[C@@H](CC(N)=O)C(=O)N[C@@H]([C@@H](C)O)C(=O)N[C@@H](C)C(=O)N[C@@H]([C@@H](C)O)C(=O)N1)[C@@H](C)O)C(=O)N1CCC[C@H]1C(=O)N[C@@H](CO)C(=O)N[C@@H](CO)C(=O)N[C@H](C(=O)N[C@@H](CC(N)=O)C(=O)N[C@H](C(=O)NCC(=O)N[C@@H](CO)C(=O)N[C@@H](CC(N)=O)C(=O)N[C@H](C(=O)N[C@@H](Cc1ccc(O)cc1)C(N)=O)[C@@H](C)O)C(C)C)[C@@H](C)O, analogue of human amylin; also called compound 70) [N^ε1-[(4S)-4-carboxy-4-(19-carboxynonadecanoylamino)butanoyl]-[His14,Arg17,Pro21,Pro27]-h-amylin] | 715
6 | K([γGlu-C20 diacid])CNTATCATQRLAHFLRHSSPNFGAIPSSTNVGSHTY-NH2 (disulfide 2-7; N-terminus assumed; SMILES CC[C@H](C)[C@H](NC(=O)[C@H](C)NC(=O)CNC(=O)[C@H](Cc1ccccc1)NC(=O)[C@H](CC(N)=O)NC(=O)[C@@H]1CCCN1C(=O)[C@H](CO)NC(=O)[C@H](CO)NC(=O)[C@H](Cc1c[nH]cn1)NC(=O)[C@H](CCCNC(=N)N)NC(=O)[C@H](CC(C)C)NC(=O)[C@H](Cc1ccccc1)NC(=O)[C@H](Cc1c[nH]cn1)NC(=O)[C@H](C)NC(=O)[C@H](CC(C)C)NC(=O)[C@H](CCCNC(=N)N)NC(=O)[C@H](CCC(N)=O)NC(=O)[C@@H](NC(=O)[C@H](C)NC(=O)[C@@H]1CSSC[C@H](NC(=O)[C@@H](N)CCCCNC(=O)CC[C@H](NC(=O)CCCCCCCCCCCCCCCCCCC(=O)O)C(=O)O)C(=O)N[C@@H](CC(N)=O)C(=O)N[C@@H]([C@@H](C)O)C(=O)N[C@@H](C)C(=O)N[C@@H]([C@@H](C)O)C(=O)N1)[C@@H](C)O)C(=O)N1CCC[C@H]1C(=O)N[C@@H](CO)C(=O)N[C@@H](CO)C(=O)N[C@H](C(=O)N[C@@H](CC(N)=O)C(=O)N[C@H](C(=O)NCC(=O)N[C@@H](CO)C(=O)N[C@@H](Cc1c[nH]cn1)C(=O)N[C@H](C(=O)N[C@@H](Cc1ccc(O)cc1)C(N)=O)[C@@H](C)O)C(C)C)[C@@H](C)O, analogue of human amylin; also called compound 66) | 542
